Test [1] has as its target T1, HuCD3E (Homo sapiens, UniProt P07766 23-126, limits assumed).
T1 construct: Recombinant analyte in SPR and antigen in ELISA; also called human CD3; human CD3 epsilon
The test can be described thus: SPR, Biacore 8K; CD3 Affinity column: Med; lower end of the range. In general terms: In SPR one partner is held on a chip, and binding of the other changes the refractive index at the surface.

Test [2] concerns the target T1, HuCD3E. The test is described as follows: SPR, Biacore 8K; CD3 Affinity column: Med; upper end of the range.
The target of test [3] is T1, HuCD3E. The test is described as follows: SPR, Biacore 8K; CD3 Affinity column: Hi.
In test [4] the target is T1, HuCD3E. The test can be described thus: SPR, Biacore 8K; CD3 Affinity column: Med; lower end of the range. The source holds these as a separate data set.
The target in test [5] is T1, HuCD3E. The test is described as follows: SPR, Biacore 8K; CD3 Affinity column: Med; upper end of the range. The protocol:
(§1) Initially, the affinity measurement of the anti-CD3 clones were determined using a Surface Plasmon Resonance (SPR) biosensor, Biacore 8K (GE Healthcare). The equilibrium dissociation constant (KD) was calculated from the ratio of kd over ka. To determine the contribution of a specific residue to antibody affinity and expression, paratope mapping was performed by screening of NNK libraries. In brief, the VH and VL of the parental antibody were searched by using NCBI Ig-Blast (www.ncbi.nlm.nih.gov/projects/igblast/) and CDRs were defined by the KABAT delineation system. All residues within CDRs were defined and mutated by NNK method. Each individual NNK library was generated per residue based on the FASEBA platform with a theoretical diversity at 20. The DNA encoding both heavy chain and light chain were inserted into a mammalian expression vector, transfected into CHO-S cells, and stable clones of highest expression were selected. Supernatants were collected from shaker flasks and purified on protein A affinity chromatography.
(§2) Affinity ranking. Binding between the parental and affinity-tuned bispecific antibodies and human and cyno target proteins (HER2 and CD3) was validated by ELISA, and a Biacore 8K was used to study the kinetics of the interaction between the antigen and the bispecific antibodies.
The source holds these as a separate data set.

A further test concerns the target T2, CynoCD3E (cyno, UniProt Q95LI5 22-117, limits assumed).
T2 construct: Recombinant analyte in SPR and antigen in ELISA; The construct is not described; also called cynomolgus CD3 epsilon
T2 sequence (looked up): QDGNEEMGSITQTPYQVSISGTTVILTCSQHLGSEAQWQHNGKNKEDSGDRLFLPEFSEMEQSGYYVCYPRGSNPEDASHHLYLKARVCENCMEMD
The test can be described thus: SPR, Biacore 8K; antibody captured, CD3E as analyte. The protocol:
as §1, §2

In test [6] the target is T1, HuCD3E. Described as above. The protocol: as §1, §2

The values that follow come from patent publication US20250340637A1 (ABPRO, published 2025).

The term Kd denotes the constant that tells how readily two partners part at equilibrium. Higher therefore signals weaker binding. A word on the koff: it is a measure of how fast the partners let go of each other. Broadly, the kon is the rate constant with which the complex forms. Higher therefore signals fast association.

T1 sequence (P07766 23-126 limits assumed): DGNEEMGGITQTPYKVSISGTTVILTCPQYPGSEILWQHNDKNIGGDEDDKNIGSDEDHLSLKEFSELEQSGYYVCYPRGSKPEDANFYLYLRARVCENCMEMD

B1: 32G4-V8-v5.2 (antibody, V domains shown)
VH: EVQLVESGGGLVQPGGSLKLSCAASGFTFNTYAMNWVRQAPGKGLEWVARIRSKYNNYATYKADSVKDRFTISRDDSKNTAYLQMNSLKTEDTAVYYCVRHGNFGNSYVSWFAYWGQGTLVTVSS
VL: QTVVTQEPSLTVSPGGTVTLTCRSSTGAVTTSNYANWVQQKPGQAFRGLIGGTNKRAPGVPARFSGSLLGGKAALTLSGVQPEDEAIYFCALWYSNLWVFGGGTKLTVL
B1: the figures for the Kd with HuCD3E [1] and in the test with HuCD3E [2] were no less than 10 nM and no more than 100 nM, respectively.

B2: ABP100s.11.5 (antibody, V domains shown)
VH: EVQLLESGGGLVQPGGSLRLSCAASGFTFNTYAMNWVRQAPGKGLEWVSRIRSKYNNYATYYADSVKDRFTISRDNSKNTLYLQMNSLRAEDTAVYYCAKHGNFGNSYVSWFAYWGQGTTVTVSS
VL: QAVVTQEPSLTVSPGGTVTLTCRSSTGAVTTSNYANWFQQKPGQAPRTLIYGTNKRAPWTPARFSGSLLGGKAALTLSGAQPEDEAEYYCALWYSNLWVFGGGTKLTVL
B2 gave a Kd with HuCD3E [3] of less than 10 nM.

B3: ABP100s.11.0 (antibody, V domains shown)
VH: EVQLLESGGGLVQPGGSLRLSCAASGFTFNTYAMNWVRQAPGKGLEWVSRIRSKYNNYATYYADSVKDRFTISRDNSKNTLYLQMNSLRAEDTAVYYCAKHGNFGNSYVSWFAYWGQGTTVTVSS
VL: QAVVTQEPSLTVSPGGTVTLTCRSSTGAVTTSNYANWFQQKPGQAPRTLIYGTNKRAPWTPARFSGSLLGGKAALTLSGAQPEDEAEYYCALWYSNLWVFGGGTKLTVL
In the test with HuCD3E [3], B3 showed a Kd of less than 10 nM.

B4: ABP100s.10.6.4 (antibody, V domains shown)
VH: EVQLVESGGGLVQPGGSLKLSCAASGFTFNTYAMNWVRQAPGKCLEWVARIRSKYNNYATYYWDSVKDRFTISRDDSKNTAYLQMNSLKTEDTAVYYCVRHGNFGNSYVSWFAYWGQGTLVTVSS
VL: QTVVTQEPSLTVSPGGTVTLTCRSSTGAVTTSNYANWVQQKPGQAFRGLIGGTNKRAPGVPARFSGSLLGGKAALTLSGVQPEDEAIYFCALWYSNLWVFGCGTKLTVL
In the case of B4, the Kd with HuCD3E [4] was no less than 10 nM; in the test with HuCD3E [5], no more than 100 nM.

B5: 32G4-V8-v5.3 (antibody, V domains shown)
VH: EVQLVESGGGLVQPGGSLKLSCAASGFTFNTYAMNWVRQAPGKGLEWVARIRSKYNNYATYYADKVKDRFTISRDDSKNTAYLQMNSLKTEDTAVYYCVRHGNFGNSYVSWFAYWGQGTLVTVSS
VL: QTVVTQEPSLTVSPGGTVTLTCRSSTGAVTTSNYANWVQQKPGQAFRGLIGGTNKRAPGVPARFSGSLLGGKAALTLSGVQPEDEAIYFCALWYSNLWVFGGGTKLTVL
Turning to B5, the Kd with HuCD3E [1] was no less than 10 nM; with HuCD3E [2], no more than 100 nM.

B6: ABP100s.12.0 (antibody, V domains shown)
VH: EVQLLESGGGLVQPGGSLRLSCAASGFTFNTYAMNWVRQAPGKCLEWVSRIRSKYNNYATYYADSVKDRFTISRDNSKNTLYLQMNSLRAEDTAVYYCAKHGNFGNSYVSWFAYWGQGTTVTVSS
VL: QAVVTQEPSLTVSPGGTVTLTCRSSTGAVTTSNYANWFQQKPGQAPRTLIYGTNKRAPWTPARFSGSLLGGKAALTLSGAQPEDEAEYYCALWYSNLWVFGCGTKLTVL
B6: in the test with HuCD3E [3], the dissociation constant Kd is less than 10 nM.

B7: ABP100s.12.5 (antibody, V domains shown)
VH: EVQLLESGGGLVQPGGSLRLSCAASGFTFNTYAMNWVRQAPGKCLEWVSRIRSKYNNYATYYADSVKDRFTISRDNSKNTLYLQMNSLRAEDTAVYYCAKHGNFGNSYVSWFAYWGQGTTVTVSS
VL: QAVVTQEPSLTVSPGGTVTLTCRSSTGAVTTSNYANWFQQKPGQAPRTLIYGTNKRAPWTPARFSGSLLGGKAALTLSGAQPEDEAEYYCALWYSNLWVFGCGTKLTVL
B7: the Kd in the test with HuCD3E [3] was less than 10 nM.

B8: ABP100s.10.6.2 (antibody, V domains shown)
VH: EVQLVESGGGLVQPGGSLKLSCAASGFTFNTYAMNWVRQAPGKCLEWVARIRSKYNNYATYKADSVKDRFTISRDDSKNTAYLQMNSLKTEDTAVYYCVRHGNFGNSYVSWFAYWGQGTLVTVSS
VL: QTVVTQEPSLTVSPGGTVTLTCRSSTGAVTTSNYANWVQQKPGQAFRGLIGGTNKRAPGVPARFSGSLLGGKAALTLSGVQPEDEAIYFCALWYSNLWVFGCGTKLTVL
Regarding B8, the Kd with HuCD3E [4] is no less than 10 nM; with HuCD3E [5], no more than 100 nM.

B9: ABP100s.10.5.4 (antibody, V domains shown)
VH: EVQLVESGGGLVQPGGSLKLSCAASGFTFNTYAMNWVRQAPGKCLEWVARIRSKYNNYATYYWDSVKDRFTISRDDSKNTAYLQMNSLKTEDTAVYYCVRHGNFGNSYVSWFAYWGQGTLVTVSS
VL: QTVVTQEPSLTVSPGGTVTLTCRSSTGAVTTSNYANWVQQKPGQAFRGLIGGTNKRAPGVPARFSGSLLGGKAALTLSGVQPEDEAIYFCALWYSNLWVFGCGTKLTVL
B9: the Kd in the test with HuCD3E [4] was no less than 10 nM; with HuCD3E [5], no more than 100 nM.

B10: VH2 (SEQ ID NO: 21) + VL6 (SEQ ID NO: 19) (antibody, V domains shown)
VH: EVQLVESGGGLVQPGGSLKLSCAASGFTFNTYAMNWVRQASGKGLEWVARIRSKYNNYATYYADSVKDRFTISRDDSKNTAYLQMNSLKTEDTAVYYCVRHGNFGNSYVSWFAYWGQGTLVTVSS
VL: QTVVTQEPSLTVSPGGTVTLTCRSSTGAVTTSNYANWVQQKPGQAFRGLIGGTNKRAPGVPARFSGSLLGGKAALTLSGVQPEDEAIYFCALWYSNLWVFGGGTKLEIK
notes: Humanized SP34 anti-CD3 variant; the text around it speaks of full-length bispecific antibodies; The sample heated at 42° C. is the same molecule and is marked under assay; also called VH2 + VL6
In the test with CynoCD3E, B10 had a Kd of 1.7 nM, a koff of 0.000821 s⁻¹ and a kon of 483000 M⁻¹ s⁻¹. In the test with HuCD3E [6], the affinity, expressed as Kd, was 1.01 nM; the koff stood at 0.000357 s⁻¹; the kon was found to be 352000 M⁻¹ s⁻¹.

B11: 32G4-V8-v5.4 (antibody, V domains shown)
VH: EVQLVESGGGLVQPGGSLKLSCAASGFTFNTYAMNWVRQAPGKGLEWVARIRSKYNNYATYYWDSVKDRFTISRDDSKNTAYLQMNSLKTEDTAVYYCVRHGNFGNSYVSWFAYWGQGTLVTVSS
VL: QTVVTQEPSLTVSPGGTVTLTCRSSTGAVTTSNYANWVQQKPGQAFRGLIGGTNKRAPGVPARFSGSLLGGKAALTLSGVQPEDEAIYFCALWYSNLWVFGGGTKLTVL
In the case of B11, the Kd in the test with HuCD3E [1] was no less than 10 nM; with HuCD3E [2] it was no more than 100 nM.

B12: ABP100s.10.5.2 (antibody, V domains shown)
VH: EVQLVESGGGLVQPGGSLKLSCAASGFTFNTYAMNWVRQAPGKCLEWVARIRSKYNNYATYKADSVKDRFTISRDDSKNTAYLQMNSLKTEDTAVYYCVRHGNFGNSYVSWFAYWGQGTLVTVSS
VL: QTVVTQEPSLTVSPGGTVTLTCRSSTGAVTTSNYANWVQQKPGQAFRGLIGGTNKRAPGVPARFSGSLLGGKAALTLSGVQPEDEAIYFCALWYSNLWVFGCGTKLTVL
With B12, the dissociation constant Kd in the test with HuCD3E [4] is no less than 10 nM; in the test with HuCD3E [5], no more than 100 nM.

B13: ABP100s.10.6.3 (antibody, V domains shown)
VH: EVQLVESGGGLVQPGGSLKLSCAASGFTFNTYAMNWVRQAPGKCLEWVARIRSKYNNYATYYADKVKDRFTISRDDSKNTAYLQMNSLKTEDTAVYYCVRHGNFGNSYVSWFAYWGQGTLVTVSS
VL: QTVVTQEPSLTVSPGGTVTLTCRSSTGAVTTSNYANWVQQKPGQAFRGLIGGTNKRAPGVPARFSGSLLGGKAALTLSGVQPEDEAIYFCALWYSNLWVFGCGTKLTVL
B13: the Kd with HuCD3E [4] is no less than 10 nM; in the test with HuCD3E [5], no more than 100 nM.

B14: ABP100s.10.5.3 (antibody, V domains shown)
VH: EVQLVESGGGLVQPGGSLKLSCAASGFTFNTYAMNWVRQAPGKCLEWVARIRSKYNNYATYYADKVKDRFTISRDDSKNTAYLQMNSLKTEDTAVYYCVRHGNFGNSYVSWFAYWGQGTLVTVSS
VL: QTVVTQEPSLTVSPGGTVTLTCRSSTGAVTTSNYANWVQQKPGQAFRGLIGGTNKRAPGVPARFSGSLLGGKAALTLSGVQPEDEAIYFCALWYSNLWVFGCGTKLTVL
For B14, the Kd in the test with HuCD3E [4] is no less than 10 nM; with HuCD3E [5], no more than 100 nM.

B15: 47D10-V7-v5.1 (antibody, V domains shown)
VH: EVQLVESGGGLVQPGGSLKLSCAASGFTFNTYAMNWVRQAPGKGLEWVARIRSKYNNYATYYADSVKDRFTISRDDSKNTAYLQMNSLKTEDTAVYYCVRHGNFGNSYVSWFGYWGQGTLVTVSS
VL: QTVVTQEPSLTVSPGGTVTLTCRSSTGAVTTSNYANWVQQKPGQAFRGLIGGTNKRAPGVPARFSGSLLGGKAALTLSGVQPEDEAIYFCALWYSNLWVFGGGTKLTVL
B15 registered a Kd in the test with HuCD3E [3] of less than 10 nM.

B16: 47D10-V7 x huSP34-v5 (N297A, K322A) (bispecific antibody, V domains shown)
VH: EVQLVESGGGLVQPGGSLKLSCAASGFTFNTYAMNWVRQAPGKGLEWVARIRSKYNNYATYYADSVKDRFTISRDDSKNTAYLQMNSLKTEDTAVYYCVRHGNFGNSYVSWFAYWGQGTLVTVSS
VL: QTVVTQEPSLTVSPGGTVTLTCRSSTGAVTTSNYANWVQQKPGQAFRGLIGGTNKRAPGVPARFSGSLLGGKAALTLSGVQPEDEAIYFCALWYSNLWVFGGGTKLEIK
notes: The name carries the substitutions N297A, K322A
B16 returned a Kd with HuCD3E [3] of less than 10 nM.
